# Source: patent publication US20090298167A1 (Pfizer, published 2009)
# Positions count from the first letter of the chain named.
# B1: scFv L14 (scFv)
# scFv: QVQLQESGPGLVKTSETLSLTCAVSGYSISSGYYWGWIRQPPGKGLEWIGSISHTGNTYYNPPLKSRVTISVDTSKNQFSLKLSSVTAADTAVYYCARGGGISRPEYWGKGTLVTVSSGGGGSGGGGSGGGGSALSSELTQDPPVSVALGQTVTLTCQGDSLRTYYASWYQQKSGQAPILLLYGKHKRPSGIPDRFSGSTSGDTASLTITGAQAEDEADYYCMARSRKGNPHVLFGGGTQLTVL
# B2: scFv L25 (scFv)
# scFv: B1 scFv with M223T, A224T, R227N
# B3: scFv L24 (scFv)
# scFv: B1 scFv with M223I, R227N
# B4: scFv L18 (scFv)
# scFv: B1 scFv with M223V, A224T, R227V
# B5: scFv L17 (scFv)
# scFv: B1 scFv with M223S, A224T
# B6: scFv L21 (scFv)
# scFv: B1 scFv with M223A, A224T, S226A, R227V, K228R
# B7: scFv L19 (scFv)
# scFv: B1 scFv with M223V, S226A, R227V, K228R
# B8: scFv L20 (scFv)
# scFv: B1 scFv with M223V, A224S, R227A
# B9: scFv L15 (scFv)
# scFv: B1 scFv with M223S, A224T, S226A, R227I, K228H
# B10: scFv L16 (scFv)
# scFv: B1 scFv with M223V, A224T, R227A
# B11: AbA (antibody, human IgG1, V domains shown)
# VH: QVQLQESGPGLVKPSETLSLTCAVSGYSISSGYYWGWIRQPPGKGLEWIGSISHTGNTYYNPPLKSRVTISVDTSKNQFSLKLSSVTAADTAVYYCARGGGISRPEYWGQGTLVTVSS
# VL: SSELTQDPAVSVALGQTVRITCQGDSLRTYYASWYQQKPGQAPVLVIYGKHKRPSGIPDRFSGSSSGNTASLTITGAQAEDEADYYCVARSVVGNPHVLFGGGTQLTVL
# notes: Full-length human IgG1 / human lambda, transient, conditioned medium; Framework limits derived; also called VHP/VL2
# B12: AbH (antibody, human IgG1, V domains shown)
# VH: B11 VH
# VL: B11 VL with S91A, V93R
# notes: Full-length human IgG1 / human lambda, transient, conditioned medium; Framework limits derived; also called VHP/VL19
# B13: AbC (antibody, human IgG1, V domains shown)
# VH: B11 VH
# VL: B11 VL with V88S, A89S, V92R, V93H
# notes: Full-length human IgG1 / human lambda, transient, conditioned medium; Framework limits derived; also called VHP/VL11
# B14: AbK (antibody, human IgG1, V domains shown)
# VH: B11 VH with G99F, G100M, I102F, S103G
# VL: B11 VL with A89S, S91A
# notes: Full-length human IgG1 / human lambda, transient, conditioned medium; Framework limits derived; also called VH3/VL3
# B15: AbM (antibody, human IgG1, V domains shown)
# VH: B11 VH with G99F, G100F, I102F, S103G
# VL: B11 VL with A89T, S91N, V92R, V93Y
# notes: Full-length human IgG1 / human lambda, transient, conditioned medium; Framework limits derived; also called VH6/VL13
# B16: AbE (antibody, human IgG1, V domains shown)
# VH: B11 VH
# VL: B11 VL with V88M, V92R, V93K
# notes: Full-length human IgG1 / human lambda, transient, conditioned medium; Framework limits derived; also called VHP/VL14
# B17: AbF (antibody, human IgG1, V domains shown)
# VH: B11 VH
# VL: B11 VL with V88S, A89T, V92R, V93K
# notes: Full-length human IgG1 / human lambda, transient, conditioned medium; Framework limits derived; also called VHP/VL17
# B18: AbB (antibody, human IgG1, V domains shown)
# VH: B11 VH
# VL: B11 VL with A89S, S91A
# notes: Full-length human IgG1 / human lambda, transient, conditioned medium; Framework limits derived; also called VHP/VL3
# B19: AbI (antibody, human IgG1, V domains shown)
# VH: B11 VH
# VL: B11 VL with V88I, V92N, V93K
# notes: Full-length human IgG1 / human lambda, transient, conditioned medium; Framework limits derived; also called VHP/VL24
# B20: AbJ (antibody, human IgG1, V domains shown)
# VH: B11 VH with G99F, G100M, I102F, S103G
# VL: B11 VL with V88N, A89S, S91D, V92S, V93S
# notes: Full-length human IgG1 / human lambda, transient, conditioned medium; Framework limits derived; also called VH3/VLP
# B21: AbN (antibody, human IgG1, V domains shown)
# VH: B11 VH with G99F, G100F, I102F, S103G
# VL: B11 VL with V88I, V92N, V93K
# notes: Full-length human IgG1 / human lambda, transient, conditioned medium; Framework limits derived; also called VH6/VL24
# Target: T1, murine IL-21R expressed on cells (murine, UniProt Q9JHX3 20-529)
# T1 sequence (Q9JHX3 20-529 limits assumed): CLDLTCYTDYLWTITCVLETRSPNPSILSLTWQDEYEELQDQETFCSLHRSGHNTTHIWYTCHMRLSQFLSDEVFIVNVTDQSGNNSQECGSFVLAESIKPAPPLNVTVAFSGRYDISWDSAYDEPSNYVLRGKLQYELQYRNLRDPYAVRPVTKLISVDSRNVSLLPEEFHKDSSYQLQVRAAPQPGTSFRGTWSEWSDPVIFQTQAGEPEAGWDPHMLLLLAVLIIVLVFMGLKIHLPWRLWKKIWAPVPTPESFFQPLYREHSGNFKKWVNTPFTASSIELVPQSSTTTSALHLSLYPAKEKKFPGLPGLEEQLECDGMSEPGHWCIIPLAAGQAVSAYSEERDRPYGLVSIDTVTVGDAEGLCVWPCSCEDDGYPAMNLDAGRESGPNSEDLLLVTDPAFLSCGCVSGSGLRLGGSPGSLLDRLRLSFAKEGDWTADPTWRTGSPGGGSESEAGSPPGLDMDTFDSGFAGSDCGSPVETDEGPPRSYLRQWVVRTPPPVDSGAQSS
# Test: cell-based or functional assay
row,Binder,IC50 (nM) in Murine IL-21R-BaF3 Neutralization Assay [nM]
1,B1,6.49
2,B2,15.6
3,B3,3.73
4,B4,8.34
5,B5,2.66
6,B6,162
7,B7,13.6
8,B8,15.4
9,B9,53.5
10,B10,4.71

# Target: T2, human IL-21R expressed on cells (human, UniProt Q9HBE5 20-538)
# T2 sequence (Q9HBE5 20-538 limits assumed): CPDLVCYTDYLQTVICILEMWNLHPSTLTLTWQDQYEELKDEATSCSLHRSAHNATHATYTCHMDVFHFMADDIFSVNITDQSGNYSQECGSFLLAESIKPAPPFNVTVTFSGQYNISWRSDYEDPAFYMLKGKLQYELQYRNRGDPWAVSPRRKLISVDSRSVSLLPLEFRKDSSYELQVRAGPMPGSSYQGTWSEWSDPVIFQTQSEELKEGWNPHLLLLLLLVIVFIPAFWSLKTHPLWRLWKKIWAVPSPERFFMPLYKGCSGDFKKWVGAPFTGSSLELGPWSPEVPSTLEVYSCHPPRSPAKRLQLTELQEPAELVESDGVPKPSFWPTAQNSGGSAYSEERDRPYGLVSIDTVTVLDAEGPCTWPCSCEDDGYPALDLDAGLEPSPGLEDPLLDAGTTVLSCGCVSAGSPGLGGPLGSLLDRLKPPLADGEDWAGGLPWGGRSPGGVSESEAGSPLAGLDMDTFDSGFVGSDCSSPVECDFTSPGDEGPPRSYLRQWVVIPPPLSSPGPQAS
# Test: cell-based or functional assay
Binder,IC50 (nM) in Human IL-21R-BaF3 Neutralization Assay [nM],IC50 (nM) in Human IL-21R-TF1 Neutralization Assay [nM]
B1,3.2,33.5
B2,3.7,33.1
B3,2.4,18.7
B4,3.7,54.4
B5,1.6,60.3
B6,9.4,~100
B7,4.5,35.3
B8,3.1,57.5
B9,3.3,30.3
B10,3.7,67.4

# Target: T1, murine IL-21R expressed on cells
# Test: cell-based or functional assay
# Remark: another data set of the same source
row,Binder,Murine IL-21R-BaF3 Proliferation IC50 [nM]
1,B11,0.08
2,B12,0.327
3,B13,0.03
4,B14,0.079
5,B15,0.125
6,B16,0.04
7,B17,0.304
8,B18,0.421
9,B19,0.224
10,B20,0.4
11,B21,0.435

# Target: T2, human IL-21R expressed on cells
# Test: cell-based or functional assay
# Remark: another data set of the same source
Binder,Human IL-21R-BaF3 Proliferation IC50 [nM],Human IL-21R-TF1 Proliferation IC50 [nM]
B11,0.97,3.8
B12,0.94,3.64
B13,0.82,3.36
B14,0.98,4
B15,1.08,4.22
B16,0.56,2.28
B17,0.54,2.41
B18,1.14,3.34
B19,1,3.8
B20,0.65,4.6
B21,0.5,1.59

# Target: T3, cynomolgus monkey IL-21R expressed on CHO cells (cynomolgus monkey)
# T3 construct: whole, on cells
# Test: cell ELISA on transfected CHO cells, 13 nM IgG
# Experimental: (§1) A subset of binding proteins was tested for binding to rat, cynomolgus monkey, human IL-21R, or human IL-2R-γ common subunit expressed transiently on the surfaces of CHO-PA-Dukx cells. Cells were transfected 48 hr prior to the assay. On the day of the assay, cells were washed gently 5× in PBS containing 0.9 mM CaCl₂ and 0.45 mM MgCl₂ (PBS/CaMg) on an automated plate washer (Titertek, Huntsville, Ala.), and blocked for 1 hr at RT in PBS/CaMg/5% nonfat dry milk. Conditioned media from transiently expressed anti-IL-21R IgGs were serially diluted in blocking buffer and added to the cells in the blocked plates for 1 hr at RT. Cells were washed 5× with PBS/CaMg and then incubated with horseradish peroxidase-conjugated anti-human IgG for 1 hr at RT. Cells were then washed 10× in PBS/CaMg and all of the wash buffer was removed. Cells were incubated with 100 μl TMB until the color reaction reached saturation, stopped with 100 μl of 0.18 M H₂SO₄, and read at A450 on a Perkin Elmer ENVISION™ plate reader.
row,Binder,A450 at 13 nM Ab in cell ELISA [A450]
1,B11,1.35
2,B12,1.32
3,B13,1.28
4,B14,1.34
5,B15,1.45
6,B16,1.42
7,B17,1.46
8,B18,1.33
9,B19,1.21
10,B20,1.27
11,B21,1.5

# Target: T2, human IL-21R expressed on cells
# Test: cell ELISA on transfected CHO cells, 13 nM IgG
# Experimental: as §1
row,Binder,A450 at 13 nM Ab in cell ELISA [A450]
1,B11,1.2
2,B12,1.35
3,B13,1.22
4,B14,1.36
5,B15,1.2
6,B16,1.26
7,B17,1.35
8,B18,1.15
9,B19,1.24
10,B20,1.22
11,B21,1.21

# Target: T4, rat IL-21R expressed on cells (rat)
# T4 construct: whole, on cells; Transiently transfected CHO-PA-Dukx cells
# Test: cell ELISA on transfected CHO cells, 13 nM IgG
# Experimental: as §1
row,Binder,A450 at 13 nM Ab in cell ELISA [A450]
1,B11,1.12
2,B12,1.1
3,B13,0.999
4,B14,1.18
5,B15,0.78
6,B16,1.11
7,B17,1
8,B18,1.09
9,B19,1.09
10,B20,1.26
11,B21,0.702

# Target: T5, human gamma common chain expressed on CHO cells (human, UniProt P31785 23-369)
# T5 construct: whole, on cells; Control protein; also called human IL-2R-γ common subunit; human gamma (γ) common chain
# T5 sequence (looked up): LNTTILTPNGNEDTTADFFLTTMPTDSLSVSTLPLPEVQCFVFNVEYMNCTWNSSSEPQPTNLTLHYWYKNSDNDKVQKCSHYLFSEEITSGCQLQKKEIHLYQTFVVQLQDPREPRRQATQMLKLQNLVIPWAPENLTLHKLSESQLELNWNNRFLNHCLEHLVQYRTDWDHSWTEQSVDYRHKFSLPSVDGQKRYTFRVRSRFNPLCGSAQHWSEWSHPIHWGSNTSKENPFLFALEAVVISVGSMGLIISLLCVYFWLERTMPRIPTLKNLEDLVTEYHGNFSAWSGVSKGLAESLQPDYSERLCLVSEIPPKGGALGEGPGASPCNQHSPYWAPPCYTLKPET
# Test: cell ELISA on transfected CHO cells, 13 nM IgG
# Experimental: as §1
row,Binder,A450 at 13 nM Ab in cell ELISA [A450]
1,B11,0.111
2,B13,0.137
3,B14,0.108
4,B18,0.107
5,B19,0.107
6,B20,0.126
7,B21,0.136
